From patent US5641746A, “Animal model for AIDS” (Rutgers State University of New Jersey, priority 1994, dated 1997)

Columns and labels:
rats = experiment: Intrathecal VIP in rats; format: in vivo, rat
Method: Each animal was treated with VIP or Ringer's solution in a counterbalanced fashion. […] At a dose of 25 ug VIP/5 ul (5 ug/ul), there were 4 of 6 documented deaths. At 60 ug VIP/5 ul (12 ug/ul), there were 3 of 5 documented deaths.

[1] = system: gp120 binding to brain tissue; settings: in vitro; cited from earlier work
HIV = settings: in vitro; cited from earlier work
[2] = system: neurotoxic effects of gp120; settings: on cells and in animals; cited from earlier work
[3] = system: intracellular free calcium; settings: cited from earlier work

Vasoactive Intestinal Peptide [VIP]
Documented deaths (rats; 25 ug VIP/5 ul (5 ug/ul) IT): 4 of 6 | Documented deaths (rats; 60 ug VIP/5 ul (12 ug/ul) IT): 3 of 5 | Morbidity (rats; IT VIP): morbidity was observed | Symptoms shown by all VIP-treated animals (rats; IT VIP, all doses): diarrhea, weight loss, monoparesis, lower limb deficits and mucous secretions | Concentration shown to be effective to induce the desired symptoms (rats; IT, rats): 2.55 to 12 µg/µL | AIDS-like symptoms in addition to neurological deficit (rats; VIP 25 ug/5 ul (5 ug/ul) IT): diarrhea, hind limb rigidity and damage to spinal tissue | Effect on binding of gp120 [1]: inhibit | Effect on HIV replication in cell culture (HIV): inhibit | Effect on the neurotoxic effects of gp120 [2]: potently inhibit

COCCOC(=O)C1=C(C)NC(C)=C(C(=O)OC(C)C)C1c1cccc([N+](=O)[O-])c1 (stereo not shown) [nimodipine]
Effect on gp 120-CD4 induced increase of intracellular free calcium [3]: antagonize this effect
